*1 amine or outer side, *2 acyl side, *3 side chain or, on linkers, in order; H or OH if unused. Bridges are numbered along the chain shown (N, C = ends). Where no end group is shown, it is not given here. [ ]: non-standard residue; d: D form. TATA = O=C(CC[*:1])N1CN(C(=O)CC[*:2])CN(C(=O)CC[*:3])C1; Hyp = O=C(O)[C@@H]1C[C@@H](O)CN1; hArg = N=C(N)NCCCC[C@H](N)C(=O)O; βAla = NCCC(=O)O; Sar = CNCC(=O)O

Experiment [1] has as its target T1, Human EphA2 (Ecto), C-terminal polyHis (Human, UniProt P29317 24-537).
T1 construct: extracellular domain; R&D systems 3035-A2 or in-house
Description: FP competition vs Reference Compound C (Study 2).

Experiment [2] concerns the target T1, Human EphA2 (Ecto), C-terminal polyHis. The experiment is described as follows: FP competition vs Reference Compound C.
In experiment [3] the target is T2, Mouse EphA2 (Ecto) (Mouse, UniProt Q03145 26-538).
T2 construct: extracellular domain; Fluorescence polarisation assays; not shown: Fc fusion (R&D Systems 639-A2) or C-terminal polyHis (Sino Biological 50586-M08H)
T2 sequence (Q03145 26-538): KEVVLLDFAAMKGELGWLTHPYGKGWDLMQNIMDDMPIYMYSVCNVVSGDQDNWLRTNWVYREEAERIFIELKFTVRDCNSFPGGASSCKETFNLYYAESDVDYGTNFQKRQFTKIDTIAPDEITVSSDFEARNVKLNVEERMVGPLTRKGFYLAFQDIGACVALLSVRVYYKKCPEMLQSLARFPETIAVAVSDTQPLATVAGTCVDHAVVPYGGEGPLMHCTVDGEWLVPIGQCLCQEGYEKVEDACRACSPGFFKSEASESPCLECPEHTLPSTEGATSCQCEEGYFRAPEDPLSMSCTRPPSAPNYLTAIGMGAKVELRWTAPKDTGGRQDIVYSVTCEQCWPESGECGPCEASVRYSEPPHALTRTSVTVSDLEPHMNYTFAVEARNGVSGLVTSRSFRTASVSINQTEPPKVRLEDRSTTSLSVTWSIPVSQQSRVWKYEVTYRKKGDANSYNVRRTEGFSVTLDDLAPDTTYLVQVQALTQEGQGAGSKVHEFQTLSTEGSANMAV
The experiment is described as follows: FP competition vs Reference Compound C.

In experiment [4] the target is T1, Human EphA2 (Ecto), C-terminal polyHis. The experiment is described as follows: FP competition vs Reference Compound C (Study 2). The source holds these as a separate data set.
Experiment [5] has as its target T2, Mouse EphA2 (Ecto). Description: FP competition vs Reference Compound C (Study 2).
The target of experiment [6] is T3, Rat EphA2 (ligand binding), C-terminal polyHis (Rat).
T3 construct: In-house
The experiment is described as follows: FP competition vs Reference Compound C (Study 2).

Experiment [7] concerns the target T4, Human EphA2 (Human, UniProt P29317 24-537, limits assumed, biotinylated, 0.95 mol biotin/monomer).
T4 construct: also called Eph receptor tyrosine kinase A2
Description: SPR, biotinylated EphA2 on streptavidin chip.

The target of experiment [8] is T1, Human EphA2 (Ecto), C-terminal polyHis. The experiment is described as follows: FP competition vs Reference Compound B.
Experiment [9] has the same target. Description: FP competition vs Reference Compound C. The source holds these as a separate data set.
Experiment [10] has the same target. The experiment is described as follows: FP competition vs Reference Compound A.
The target of experiment [11] is T2, Mouse EphA2 (Ecto). The experiment is described as follows: FP competition vs Reference Compound C. This is another data set of the same source.

T4 sequence (P29317 24-537 limits assumed): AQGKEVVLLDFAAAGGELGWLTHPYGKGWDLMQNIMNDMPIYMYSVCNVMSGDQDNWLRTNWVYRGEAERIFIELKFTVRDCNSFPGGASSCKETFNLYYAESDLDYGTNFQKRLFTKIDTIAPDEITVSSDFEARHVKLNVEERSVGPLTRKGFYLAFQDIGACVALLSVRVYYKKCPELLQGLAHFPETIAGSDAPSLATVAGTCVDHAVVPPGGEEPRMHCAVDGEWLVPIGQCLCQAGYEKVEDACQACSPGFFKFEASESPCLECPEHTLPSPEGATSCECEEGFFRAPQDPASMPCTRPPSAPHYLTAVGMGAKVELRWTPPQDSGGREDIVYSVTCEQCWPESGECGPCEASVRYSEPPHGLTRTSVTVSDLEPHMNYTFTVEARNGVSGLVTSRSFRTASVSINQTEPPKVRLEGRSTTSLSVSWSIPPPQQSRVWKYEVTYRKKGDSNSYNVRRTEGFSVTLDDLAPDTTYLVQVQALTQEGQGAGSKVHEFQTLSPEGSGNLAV
T1 sequence (P29317 24-537): as the sequence (P29317 24-537 limits assumed) above

B1: BCY6105 (peptide)
peptide: AXDCPLVNPLCLHPGWTC
modifications: not fully specified; as BCY6014 (N-terminal (β-Ala)-Sar10; HArg; TATA scaffold on the 3 Cys) + MMAE-Ala-Ala-Asn
notes: Bicycle drug conjugate (BDC)
B1 came in with an inhibition constant (Ki) in experiment [1] of 8.86 nM.

B2: BCY6032 (peptide)
peptide: AXDCPLVNPLCLHPGWTC
modifications: not fully specified; as BCY6014 (N-terminal (β-Ala)-Sar10; HArg; TATA scaffold on the 3 Cys) + DM1-SS-(Me)-
notes: Bicycle drug conjugate (BDC)
As for B2, the Ki in experiment [2] was determined as 11.4 nM; in experiment [3], 35.9 nM; in experiment [4], 11.4 nM; in [5], 35.9 nM.

B3: BCY6174 (peptide)
peptide: [βAla][Sar][Sar][Sar][Sar][Sar][Sar][Sar][Sar][Sar][Sar]A[hArg]DC[Hyp]LVNPLCLHP[dD]W[hArg]C
modifications: linker 15-22-29 via TATA; not fully specified (N-terminus, C-terminus); also: ValLys-MMAE conjugate, site not given here
notes: Bicycle drug conjugate (BDC)
As for B3, in experiment [6], the Ki came out at 3 nM.

B4: BCY6064 (peptide)
peptide: AXDCPLVNPLCLHPGWTC
modifications: not fully specified; as BCY6014 (N-terminal (β-Ala)-Sar10; HArg; TATA scaffold on the 3 Cys) + Non-cleavable (DM1)
notes: Bicycle drug conjugate (BDC)
In the case of B4, the inhibition constant (Ki) in experiment [4] was determined as 12.5 nM; in experiment [5], 40.7 nM.

B5: BCY6026 (peptide)
peptide: ACPLVNPLCLHPGWSCRGQ
modifications: linker 2-9-16 via TATA
notes: Bicyclic peptide on a TATA scaffold, no toxin; Made on Rink amide resin; also called Compound 87; Bicycle Compound Number 87
As for B5, the t1/2 in experiment [7] is 11.3 min.

Take ACSPTPACAVQNLCA (linker 2-8-14 via TATA; not fully specified (C-terminus)) [Compound 31]: the Ki came out at 177 nM in [8] and 223 nM in [9].

B6: BCY6173 (peptide)
peptide: [βAla][Sar][Sar][Sar][Sar][Sar][Sar][Sar][Sar][Sar][Sar]A[hArg]DC[Hyp]LVNPLCLHP[dD]W[hArg]C
modifications: linker 15-22-29 via TATA; not fully specified (N-terminus, C-terminus); numbers in words are those of the source; also: DM1-SS(SO3H)- conjugate, site not given here
notes: Bicycle drug conjugate (BDC)
Consider B6, for which the affinity in experiment [6] corresponds to a Ki of 2.5 nM.

B7: BCY6061 (peptide)
peptide: AXDCPLVNPLCLHPGWTC
modifications: not fully specified; as BCY6014 (N-terminal (β-Ala)-Sar10; HArg; TATA scaffold on the 3 Cys) + ValLys-MMAE
notes: Bicycle drug conjugate (BDC)
Turning to B7, the Ki in experiment [4] stood at 12 nM; in experiment [6], 14.2 nM; in experiment [5], 32.3 nM.

On to ACYVGKECAYMNVCA (linker 2-8-14 via TATA; not fully specified (C-terminus)) [Compound 29], for which the Ki was found to be 107 nM in [8], 87.7 nM in experiment [10] and 210 nM in experiment [9].

B8: BCY6031 (peptide)
peptide: AXDCPLVNPLCLHPGWTC
modifications: not fully specified; N-terminal (β-Ala)-Sar10 spacer precedes SEQ ID NO: 11; HArg (homoarginine) at residue 2 of SEQ ID NO: 11; three Cys cyclised on the TATA scaffold; DM1-SS- (DM1-SPDB) on the N-terminal amine
For B8, in [7], the affinity, expressed as Kd, was 1.99 nM and the t1/2 turned out to be 2.3 min.

B9: Compound 78 (peptide)
peptide: CPLVNPLCLHPGWTCLXG
modifications: not fully specified; N-terminal Ac; D-His; C-terminal -Sar6-(D-K); TATA scaffold on the 3 Cys
Turning to B9, the inhibitory constant (Ki) in [9] was found to be 15.6 nM; in [11], 115 nM.

B10: BCY6032 (peptide)
peptide: AXDCPLVNPLCLHPGWTC
modifications: not fully specified; N-terminal (β-Ala)-Sar10 spacer precedes SEQ ID NO: 11; HArg (homoarginine) at residue 2 of SEQ ID NO: 11; three Cys cyclised on the TATA scaffold; DM1-SS-(Me)- (DM1-SPP) on the N-terminal amine
As to B10, in [7], the Kd was found to be 2.1 nM and the t1/2 was 2.2 min.

B11: BCY6062 (peptide)
peptide: AXDCPLVNPLCLHPGWTC
modifications: not fully specified; as BCY6014 (N-terminal (β-Ala)-Sar10; HArg; TATA scaffold on the 3 Cys) + D-TrpCit-MMAE
notes: Bicycle drug conjugate (BDC)
For B11, the results for the Ki in experiment [4] and in experiment [5] were 12.9 nM and 20.3 nM, respectively.

B12: BCY6039 (peptide)
peptide: AXDCPLVNPLCLHPGWTC
modifications: not fully specified; as BCY6014 (N-terminal (β-Ala)-Sar10; HArg; TATA scaffold on the 3 Cys) + DM1-(Me)-SS-(Me)-
notes: Bicycle drug conjugate (BDC)
In the case of B12, in experiment [1], the Ki turned out to be 9.4 nM.

Consider ACQPSNHCAFMNYCA (linker 2-8-14 via TATA) [Compound 30], for which the results for the Ki in experiment [8] and in experiment [10] were 187 nM and 137 nM, respectively.

B13: BCY6034 (peptide)
peptide: AXDCPLVNPLCLHPGWTC
modifications: not fully specified; as BCY6014 (N-terminal (β-Ala)-Sar10; HArg; TATA scaffold on the 3 Cys) + TrpCit-MMAE
notes: Bicycle drug conjugate (BDC)
In the case of B13, the results for the inhibition constant Ki in experiment [4] and in [5] were 5.9 nM and 35.9 nM, respectively.

B14: BCY6077 (peptide)
peptide: AXDCPLVNPLCLHPGWTC
modifications: not fully specified; as BCY6014 (N-terminal (β-Ala)-Sar10; HArg; TATA scaffold on the 3 Cys) + DM1-SS-(Me)-SO3H-
notes: Bicycle drug conjugate (BDC)
As for B14, the inhibitory constant (Ki) in experiment [4] turned out to be 6.5 nM; in experiment [5], 25.3 nM.

B15: BCY6034 (peptide)
peptide: AXDCPLVNPLCLHPGWTC
modifications: not fully specified; N-terminal (β-Ala)-Sar10 spacer precedes SEQ ID NO: 11; HArg (homoarginine) at residue 2 of SEQ ID NO: 11; three Cys cyclised on the TATA scaffold; TrpCit-MMAE (MMAE-PABC-Cit-Trp-glutarate) on the N-terminal amine
For the molecule B15, in [7], the Kd is 1.64 nM and the t1/2 was found to be 3.2 min.

B16: BCY6031 (peptide)
peptide: AXDCPLVNPLCLHPGWTC
modifications: not fully specified; as BCY6014 (N-terminal (β-Ala)-Sar10; HArg; TATA scaffold on the 3 Cys) + DM1-SS-
notes: Bicycle drug conjugate (BDC)
For the molecule B16, the Ki in [2] is 12.6 nM; in experiment [3] it was 34.7 nM; in experiment [4], 12.5 nM; in [6], 20 nM; in [5], 35.1 nM.

Take ACTSCWAYPDSFCA (linker 2-5-13 via TATA; not fully specified (C-terminus)) [Compound 32]: the values for the inhibitory constant (Ki) in experiment [10] and in [9] were 151 nM and 232 nM, respectively.

B17: BCY6136 (peptide)
peptide: [βAla][Sar][Sar][Sar][Sar][Sar][Sar][Sar][Sar][Sar][Sar]A[hArg]DC[Hyp]LVNPLCLHP[dD]W[hArg]C
modifications: linker 15-22-29 via TATA; not fully specified (N-terminus, C-terminus); also: ValCit-MMAE conjugate, site not given here
notes: Bicycle drug conjugate (BDC); also called BT5528
B17 showed a Ki in experiment [6] of 3.2 nM.

B18: BCY6063 (peptide)
peptide: AXDCPLVNPLCLHPGWTC
modifications: not fully specified; as BCY6014 (N-terminal (β-Ala)-Sar10; HArg; TATA scaffold on the 3 Cys) + Non-cleavable (MMAE)
notes: Bicycle drug conjugate (BDC)
For the molecule B18, the figures for the inhibition constant Ki in [4] and in experiment [5] were 7.8 nM and 66.8 nM, respectively.

B19: BCY6107 (peptide)
peptide: AXDCPLVNPLCLHPGWTC
modifications: not fully specified; as BCY6014 (N-terminal (β-Ala)-Sar10; HArg; TATA scaffold on the 3 Cys) + MMAE-Glu-Pro-Cit-Gly-hPhe-Tyr-Leu-
notes: Bicycle drug conjugate (BDC)
As for B19, affinity in experiment [1] was put at a Ki of 19.2 nM.

B20: BCY6106 (peptide)
peptide: AXDCPLVNPLCLHPGWTC
modifications: not fully specified; as BCY6014 (N-terminal (β-Ala)-Sar10; HArg; TATA scaffold on the 3 Cys) + MMAE-D-Ala-Phe-Lys-
notes: Bicycle drug conjugate (BDC)
For B20, in experiment [1], the affinity corresponds to a Ki of 12.9 nM.

B21: BCY6135 (peptide)
peptide: [βAla][Sar][Sar][Sar][Sar][Sar][Sar][Sar][Sar][Sar][Sar]A[hArg]DC[Hyp]LVNPLCLHP[dD]W[hArg]C
modifications: linker 15-22-29 via TATA; not fully specified (N-terminus, C-terminus); numbers in words are those of the source; also: DM1-SS- conjugate, site not given here
notes: Bicycle drug conjugate (BDC)
In [6], B21 displayed an inhibitory constant (Ki) of 2.9 nM.

The record behind these values is patent US20240000957A1 (published 2024).
